We go through three molecules from paper PMC4126857 (Structure (London, England : 1993), 2014).

The series “SAXS” deals with the molecule itself. Nature of the series: SAXS.
Another series concerns the target T1, 6×His-ZYG-1 CPB K454E (C. elegans, UniProt Q9GT24 338-564, K454E).
T1 sequence (looked up): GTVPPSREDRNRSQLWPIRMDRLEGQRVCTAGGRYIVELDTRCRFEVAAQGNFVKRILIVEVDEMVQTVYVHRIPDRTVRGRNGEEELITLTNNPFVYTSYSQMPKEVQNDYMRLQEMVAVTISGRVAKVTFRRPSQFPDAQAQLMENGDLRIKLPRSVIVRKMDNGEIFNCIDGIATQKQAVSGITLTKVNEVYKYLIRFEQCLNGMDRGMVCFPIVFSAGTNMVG
Nature of the series: pull-down.

Where no end group is shown, it is not given here.

B1: ZYG-1 cryptic polo box (CPB), aa 338-564 (domain or fragment, C. elegans, UniProt Q9GT24 338-564, looked up)
chain: GTVPPSREDRNRSQLWPIRMDRLEGQRVCTAGGRYIVELDTRCRFEVAAQGNFVKRILIVEVDEMVQTVYVHRIPDRTVRGRNGEEELITLTNNPFVYTSYSQMPKEVQNDYMRLQKMVAVTISGRVAKVTFRRPSQFPDAQAQLMENGDLRIKLPRSVIVRKMDNGEIFNCIDGIATQKQAVSGITLTKVNEVYKYLIRFEQCLNGMDRGMVCFPIVFSAGTNMVG
modifications: for crystallization: selenomethionine-substituted, lysine methylated; for MST: labelled with Monolith NT.115 Labeling Kit RED-NHS
With B1, the “stoichiometry N” value in the series “SAXS” is 2. For the molecule MEDDAPMNLCNEQFEEIEDSPIDDNDNESFYNADGDVELEEEEVHE (domain or fragment, C. elegans, UniProt P91870 1-46, looked up, also: MBP fusion) [MBP-CeSPD-2 AR (aa 1-46), WT], in the series with 6×His-ZYG-1 CPB K454E, the binding result is listed as “binds”.

B2: Drosophila Plk4 cryptic polo box (DmPlk4 CPB), aa 383-601 (domain or fragment, UniProt O97143 383-601, looked up)
chain: RISVPPLNTKRLLPTRYKTKNAIMSILRNGEVVLEFLKFRPTYNEDRINDICRISDDGQRIIIYQPDPGRGLPVREQPPDLQIPSGDCVYNYDNLPSKHWKKYIYGARFVGLVKSKTPKVTYFSTLGKCQLMETMTDFEIRFYSGAKLLKTPSEGLKVYDRNGMLLSDYSCSESRSLIEHGNECFTHCVNISNALEVAQTKDNSCFPVTIGRRPITDVQ
modifications: for crystallization: lysine methylated; for MST: labelled with Monolith NT.115 Labeling Kit RED-NHS
Consider B2, for which the “stoichiometry N” value in the series “SAXS” stood at 2.
